Results: IntAct's records for PubMed 11259609

B1: Aryl hydrocarbon receptor (Homo sapiens), P35869 (parent)
chain: MNSSSANITYASRKRRKPVQKTVKPIPAEGIKSNPSKRHRDRLNTELDRLASLLPFPQDVINKLDKLSVLRLSVSYLRAKSFFDVALKSSPTERNGGQDNCRAANFREGLNLQEGEFLLQALNGFVLVVTTDALVFYASSTIQDYLGFQQSDVIHQSVYELIHTEDRAEFQRQLHWALNPSQCTESGQGIEEATGLPQTVVCYNPDQIPPENSPLMERCFICRLRCLLDNSSGFLAMNFQGKLKYLHGQKKKGKDGSILPPQLALFAIATPLQPPSILEIRTKNFIFRTKHKLDFTPIGCDAKGRIVLGYTEAELCTRGSGYQFIHAADMLYCAESHIRMIKTGESGMIVFRLLTKNNRWTWVQSNARLLYKNGRPDYIIVTQRPLTDEEGTEHLRKRNTKLPFMFTTGEAVLYEATNPFPAIMDPLPLRTKNGTSGKDSATTSTLSKDSLNPSSLLAAMMQQDESIYLYPASSTSSTAPFENNFFNESMNECRNWQDNTAPMGNDTILKHEQIDQPQDVNSFAGGHPGLFQDSKNSDLYSIMKNLGIDFEDIRHMQNEKFFRNDFSGEVDFRDIDLTDEILTYVQDSLSKSPFIPSDYQQQQSLALNSSCMVQEHLHLEQQQQHHQKQVVVEPQQQLCQKMKHMQVNGMFENWNSNQFVPFNCPQQDPQQYNVFTDLHGISQEFPYKSEMDSMPYTQNFISCNQPVLPQHSKCTELDYPMGSFEPSPYPTTSSLEDFVTCLQLPENQKHGLNPQSAIITPQTCYAGAVSMYQCQPEPQHTHVGQMQYNPVLPGQQAFLNKFQNGVLNETYPAELNNINNTQTTTHLQPLHHPSEARPFPDLTSSGFL
partner: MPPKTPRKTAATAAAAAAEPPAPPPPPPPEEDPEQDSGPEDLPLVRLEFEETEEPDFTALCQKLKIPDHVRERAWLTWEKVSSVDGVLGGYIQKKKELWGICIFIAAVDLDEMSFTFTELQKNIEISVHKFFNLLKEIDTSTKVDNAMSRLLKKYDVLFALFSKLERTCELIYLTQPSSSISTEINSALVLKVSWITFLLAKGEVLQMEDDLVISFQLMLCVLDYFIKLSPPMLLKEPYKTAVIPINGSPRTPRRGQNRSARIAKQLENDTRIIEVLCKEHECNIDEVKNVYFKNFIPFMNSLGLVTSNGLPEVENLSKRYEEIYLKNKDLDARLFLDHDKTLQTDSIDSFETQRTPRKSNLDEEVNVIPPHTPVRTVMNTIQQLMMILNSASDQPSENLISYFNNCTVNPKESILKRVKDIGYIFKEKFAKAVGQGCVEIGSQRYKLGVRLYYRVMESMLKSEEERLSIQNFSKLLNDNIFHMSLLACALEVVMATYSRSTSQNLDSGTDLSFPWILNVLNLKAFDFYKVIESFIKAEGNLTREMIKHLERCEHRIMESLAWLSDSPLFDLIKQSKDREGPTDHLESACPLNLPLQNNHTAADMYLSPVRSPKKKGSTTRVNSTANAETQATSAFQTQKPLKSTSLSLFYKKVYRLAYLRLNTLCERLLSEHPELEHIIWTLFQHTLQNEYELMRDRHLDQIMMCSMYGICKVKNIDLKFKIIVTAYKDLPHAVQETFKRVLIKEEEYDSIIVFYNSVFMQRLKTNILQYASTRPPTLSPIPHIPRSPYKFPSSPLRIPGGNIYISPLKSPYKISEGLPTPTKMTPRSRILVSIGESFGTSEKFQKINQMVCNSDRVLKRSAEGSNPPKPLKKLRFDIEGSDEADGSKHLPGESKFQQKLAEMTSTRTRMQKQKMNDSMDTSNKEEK

Variants of: B1
Conditions: with rb_human RB1, P06400

effect of a mutation on the interaction | Variant
disrupting interaction strength | L331A
disrupting interaction strength | E335A
disrupting interaction strength | C333A
